Entries after “also recorded” stand apart in the source; their conditions may differ.
Assays:
[1] = tested on: intermediate or partial states of reprogramming; conditions: cited from earlier work
B-NP-iPSC = assay: methylcellulose hematopoietic colony forming assay of EB-differentiated cells; assay type: cell-based, mouse; conditions: Wnt3a 40 ng/ml in EB culture media between day 2 and 4, versus non-treated EBs
Experimental: (§1) Differentiation of iPSC to hematopoietic and osteogenic lineages was performed as follows. Hematopoietic colony forming activity of d6 EBs differentiated from pluripotent stem cells was measured in methylcellulose medium with IL3, IL6, Epo, and SCF (M3434, StemCell Tech.) as described in Kyba et al. (Cell (109)29-37 (2002)). Hematopoietic colony type was determined on day 10. Colony identity was confirmed by leukostain analysis of cytospin preparation of the methylcellulose colonies. Osteogenic differentiation was performed by culturing pluripotent stem cells in 15 μl hanging drops (800 cells/drop) in ES differentiation media^16. Embryoid bodies (EB) from hanging drops were collected at 2 days, transferred to a 10 cm dish of non-tissue culture grade plastic with 10^−6 M of retinoic acid, and cultured for 3 days on the shaker (50 rpm) in an incubator. EBs were equally distributed among 3 wells of a 6-well tissue culture dish, and cultured in aMEM media supplemented with 10% FBS, 1× penicillin/streptomycin/glutamine (Invitrogen), 2 nM triiodothyronine, 1× insulin/transferrin/[…] (Gibco, #51300-044). The media were changed every other day. On day 11, one well of each sample was used to measure calcium concentration, osteogenic gene expression (RNA isolation), and for Alizarin Red staining. For Alizarin Red staining, cells were washed with PBS and fixed with 4% paraformaldehyde for 5 minutes at 20 C. Fixed cells were incubated for 15 minutes in Alizarin Red staining solution (Alizarin Red (Sigma, A5533) 2% in H2O, pH 4-4.3 adjusted with NH4OH, filtered with 0.45 uM membrane), and washed with Tris-HC1, pH4.0. Elemental calcium concentrations were measured by inductively coupled plasma—atomic emission spectroscopy (ICP-AES, HORIBA Jobin Yvon Activa-M) as described in Nomlru et al. (Anal. Chem. (66)3000-3004 (1994)) at the Center for Materials Science and Engineering at MIT, and three measurements were conducted to obtain mean and standard deviation values. […]

NSC-NP-iPSC = assay: as above; assay type: cell-based, mouse; conditions: Wnt3a 40 ng/ml in EB culture media between day 2 and 4, versus non-treated EBs
Experimental: as §1

NP-iPSC = assay: as above; assay type: cell-based, mouse; conditions: Wnt3a 40 ng/ml in EB culture media between day 2 and 4, versus non-treated EBs
Experimental: as §1

Molecule | effect on intermediate states of reprogramming [1] | hematopoietic potential (B-NP-iPSC) | blood-forming potential (NSC-NP-iPSC) | blood-forming potential (NP-iPSC)
Nc1ncn([C@@H]2O[C@H](CO)[C@@H](O)[C@H]2O)c(=O)n1 [5-AZA, 5-azacytidine] | can convert intermediate states to full pluripotency | – | – | –
Wnt3a: exogenous Wnt3a cytokine (R&D System, 1324-WN-002/CF) (protein, UniProt P56704 19-352, looked up) Protein Wnt-3a: SYPIWWSLAVGPQYSSLGSQPILCASIPGLVPKQLRFCRNYVEIMPSVAEGIKIGIQECQHQFRGRRWNCTTVHDSLAIFGPVLDKATRESAFVHAIASAGVAFAVTRSCAEGTAAICGCSSRHQGSPGKGWKWGGCSEDIEFGGMVSREFADARENRPDARSAMNRHNNEAGRQAIASHMHLKCKCHGLSGSCEVKTCWWSQPDFRAIGDFLKDKYDSASEMVVEKHRESRGWVETLRPRYTYFKVPTERDLVYYEASPNFCEPNPETGSFGTRDRTCNVSSHGIDGCDLLCCGRGHNARAERRREKCRCVFHWCCYVSCQECTRVYDVHTCK | – | little effect | restored | restored; also recorded: enhanced
